Measured values: IntAct's records for PubMed 16418290

B1: Caspase recruitment domain-containing protein 6 (Homo sapiens), Q9BX69 (parent)
chain: MATESTPSEIIERERKKLLEILQHDPDSILDTLTSRRLISEEEYETLENVTDLLKKSRKLLILVQKKGEATCQHFLKCLFSTFPQSAAICGLRHEVLKHENTVPPQSMGASSNSEDAFSPGIKQPEAPEITVFFSEKEHLDLETSEFFRDKKTSYRETALSARKNEKEYDTPEVTLSYSVEKVGCEVPATITYIKDGQRYEELDDSLYLGKEEYLGSVDTPEDAEATVEEEVYDDPEHVGYDGEEDFENSETTEFSGEEPSYEGSETSLSLEEEQEKSIEERKKVFKDVLLCLNMDRSRKVLPDFVKQFSLDRGCKWTPESPGDLAWNFLMKVQARDVTARDSILSHKVLDEDSKEDLLAGVENLEIRDIQTINPLDVLCATMLCSDSSLQRQVMSNMYQCQFALPLLLPDAENNKSILMLGAMKDIVKKQSTQFSGGPTEDTEKFLTLMKMPVISFVRLGYCSFSKSRILNTLLSPAQLKLHKIFLHQDLPLLVLPRQISDGLVEITWCFPDSDDRKENPFFQKPVALANLRGNLESFWTQFGFLMEVSSAVFFFTDCLGEKEWDLLMFLGEAAIERCYFVLSSQARESEEAQIFQRILNLKPAQLLFWERGDAGDRRKNMEGLQAALQEVMFSSCLRCVSVEDMAALARELGIQVDEDFENTQRIQVSSGENMAGTAEGEGQQRHSQLKSSSKSQALMPIQEPGTQCELSQNLQNLYGTPVFRPVLENSWLFPTRIGGNFNHVSLKASWVMGRPFGSEQRPKWFHPLPFQNAGAQGRGKSFGIQSFHPQIFYSGERFMKFSRVARGCHSNGTFGRLPRPICQHVQACPERPQMMGTLERSRAVASKIGHSYSLDSQPARAVGKPWPQQACTRVTELTEATGKLIRTSHIGKPHPQSFQPAAATQKLRPASQQGVQMKTQGGASNPALQIGSHPMCKSSQFKSDQSNPSTVKHSQPKPFHSVPSQPKSSQTKSCQSQPSQTKPSPCKSTQPKPSQPWPPQSKPSQPRPPQPKSSSTNPSQAKAHHSKAGQKRGGKH

Variants of: B1
Details: with ripk2_human RIPK2, O43353
Sequence of ripk2_human RIPK2, O43353 (O43353 whole entry): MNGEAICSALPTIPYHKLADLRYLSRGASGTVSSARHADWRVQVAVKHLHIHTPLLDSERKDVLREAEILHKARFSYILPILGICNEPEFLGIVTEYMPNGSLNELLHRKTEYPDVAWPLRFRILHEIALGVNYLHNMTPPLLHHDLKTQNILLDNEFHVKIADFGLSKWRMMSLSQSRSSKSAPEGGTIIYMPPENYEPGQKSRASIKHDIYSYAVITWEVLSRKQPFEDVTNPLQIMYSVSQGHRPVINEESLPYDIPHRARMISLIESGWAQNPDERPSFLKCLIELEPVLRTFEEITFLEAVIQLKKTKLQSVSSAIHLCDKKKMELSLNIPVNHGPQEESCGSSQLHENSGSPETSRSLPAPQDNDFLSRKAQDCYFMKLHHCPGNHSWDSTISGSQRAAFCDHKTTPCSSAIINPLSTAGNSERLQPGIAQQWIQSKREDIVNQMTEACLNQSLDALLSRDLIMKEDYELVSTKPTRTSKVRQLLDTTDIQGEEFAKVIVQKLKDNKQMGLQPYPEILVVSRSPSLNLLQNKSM

Row | Variant | effect of a mutation on the interaction
1 | L30R;D31N;L33R | increasing interaction strength
